Assay results from US20250353924A1 (CITY OF HOPE, published 2025).

T1: human CD84 on the cell surface (human, UniProt Q9UIB8 22-345)
T1 construct: whole, on cells; also called Cluster of Differentiation 84
T1 sequence (looked up): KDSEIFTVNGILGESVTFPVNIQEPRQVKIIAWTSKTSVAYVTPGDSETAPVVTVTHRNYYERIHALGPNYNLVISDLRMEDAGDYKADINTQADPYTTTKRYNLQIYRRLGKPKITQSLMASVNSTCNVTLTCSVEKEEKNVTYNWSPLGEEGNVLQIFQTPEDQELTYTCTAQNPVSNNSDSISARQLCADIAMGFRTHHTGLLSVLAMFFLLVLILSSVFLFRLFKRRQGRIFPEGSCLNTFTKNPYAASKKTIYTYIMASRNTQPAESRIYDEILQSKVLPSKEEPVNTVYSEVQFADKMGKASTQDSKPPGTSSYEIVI


Molecular target: T1, human CD84 on the cell surface
Test: flow cytometry, control on NS0 cells expressing human CD84

Geometric Mean | Molecule
88 | Ctrl

Molecular target: T1, human CD84 on the cell surface
Test: flow cytometry, hybridoma supernatant on NS0 cells expressing human CD84
Protocol: Hybridoma clones selected from ELISA screening were subjected to flow cytometric analyses with NSO, a mouse myeloma cell line (ECACC), expressing human CD84 via lentiviral transduction. Half a million of transduced cells were incubated with 100 mL of hybridoma culture supernatants on ice for 30 min and washed with cold PBS containing 1% fetal bovine serum and 0.1% sodium azide.

Molecule | Geometric Mean
anti-CD84 hybridoma clone 4B11 (antibody, V domains shown) VH: EVKLVESGGGLVQPGGSLRLSCATSGFTFSDFYMDWVRQPPGKRLEWIATSRNKANDYTTEYSASVRGRFIVSRDTSQSILYLQMNALRAEDTAIYYCARDAVWEPFAYWGQGTLVTVSA VL: EIVLTQSPTTMAASPGEKITVTCSANSSISSNSLHWYQQKPGFSPKLLIYRTSNLASGVPARFSGSGSGTSYFLTIGTMEAEDVATYYCQQGTSIPRTFGGGTKLEIK | 1100
anti-CD84 hybridoma clone 2H7 (antibody, V domains shown) VH: DVQLQESGPGLVKPSQSLSLTCTVTGYSITSDYAWNWIRQFPGNKLEWMGYISYSGTTSYNPSLKSRISITRDTSKNQFFLQLNSVTTEDTATYYCASLHYYGSRYKKLYAMDYWGQGTLATVSS VL: NIVMTQSPKSMSMSVGERVTLSCKASDNVGTYVSWYQQKPEQSPKLLIYGASNRYTGVPDRFTGSGSATDFTLTISSVQAEDLADYHCGQSYSYPTFGGGTKLEIK | 1550
anti-CD84 hybridoma clone 5C6 (antibody, V domains shown) VH: QVHLQQSGAELVRPGTSVKISCKASGYTFTNYWLGWVKQRPGHGLEWIGDIFPGGGYINYHEKFKGKATLTADTSSSTAYMQLSSLTSEDSAVYFCGYGNIAMDYWGQGTSVTVSS VL: QIILTQTPAIMSASPGEKVTMTCSASSSVSYVHWYQQKSGTSPKRWIYDTSKLASGVPARFSGSGSGTSYSLTISTMEAEDAATYYCQQWNNSPRTFGGGTKLEIK | 1690

Next, values leading:

Geometric Mean | Molecule
2120 | anti-CD84 hybridoma clone 13D11 (antibody, V domains shown) VH: QVTLKESGPGLLQPSQTLSLTCSFSGFSLNTSNMGVGWIRQPSGKDLEWLAHIWWDDVKRYNPALKSRLTISKDTSNNQVFLKIASVDTADTATYYCARMRGDYTMDYWGQGTSVTVSS VL: DIVLTQSPASLAVSLGQRATLSCRASQSVSTSLYSYMHWYQQKPGQPPKLLIKYASDLESGVPARFSGSGSGTDFTLHIHPVEEEDTATYYCQHSWEIPYTFGGGTKLEIK
1810 | anti-CD84 hybridoma clone 8A5 (antibody, V domains shown) VH: QIQLVQSGPELKKPGETVKISCKASGYTFTTYSMHWVKQAPGKGLKWMGWIDTATGEPTYADDFKGRFAFSLETSASTAYLQINNLNNDDTATYFCVKSAYWYFDVWGAGTTVTVSS VL: DVLMTQTPLSLPVSLGDQASISCRSSQSIVHINGNTYLEWYLQKPGQSPKLLIYKVSNRFSGVPDRFSGSGSGTDFTLKISRVEAEDLGVYYCFQGSHVPWTFGGGTKLEIK
2260 | anti-CD84 hybridoma clone 7D2 (antibody, V domains shown) VH: QVHLQQSGAELVRPGTSVKISCKASGYTFTNYWLGWVKQRPGHGLEWIGDIFPGGGYINYHEKFKGKATLTADTSSSTAYMQLSSLTSEDSAVYFCAYGNVAMDYWGQGTSVTVSS VL: QIILTQTPAIMSASPGEKVTVTCSASSSVSYVHWYQQKSGTSPKRWIYDTSKLASGVPARFSGSGSGTSYSLTISTMEAEDAATYYCQQWNNSPRTFGGGTKLEIK
